US20170342144A1 (Sanofi, published 2017)
Positions count from the first letter of the chain named.

T1: human TGFβ3 (human, UniProt P10600 301-412)
T1 sequence: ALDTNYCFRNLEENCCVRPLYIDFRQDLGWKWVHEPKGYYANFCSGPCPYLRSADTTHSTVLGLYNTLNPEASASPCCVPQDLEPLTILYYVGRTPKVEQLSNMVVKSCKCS

T2: human TGFβ2 (human, UniProt P61812 303-414)
T2 construct: also called TGFβ2 homodimer
T2 sequence: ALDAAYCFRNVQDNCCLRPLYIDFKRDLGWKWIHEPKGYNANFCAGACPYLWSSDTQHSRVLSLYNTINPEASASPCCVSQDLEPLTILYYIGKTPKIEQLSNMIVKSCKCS

B1: S30F (antibody, V domains shown)
VH: QVQLVQSGAEVKKPGSSVKVSCKASGYTFFSNVISWVRQAPGQGLEWMGGVIPIVDIANYAQRFKGRVTITADESTSTTYMELSSLRSEDTAVYYCASTLGLVLDAMDYWGQGTLVTVSS
VL: ETVLTQSPGTLSLSPGERATLSCRASQSLGSSYLAWYQQKPGQAPRLLIYGASSRAPGIPDRFSGSGSGTDFTLTISRLEPEDFAVYYCQQYADSPITFGQGTRLEIK
notes: GC1008 IgG4 variant
B2: Y27A (antibody, V domains shown)
VH: B1 VH with Y27A, F30S
VL: B1 VL
notes: GC1008 IgG4 variant
B3: S31R (antibody, V domains shown)
VH: B1 VH with F30S, S31R
VL: B1 VL
notes: GC1008 IgG4 variant
B4: S31A (antibody, V domains shown)
VH: B1 VH with F30S, S31A
VL: B1 VL
notes: GC1008 IgG4 variant
B5: S31E (antibody, V domains shown)
VH: B1 VH with F30S, S31E
VL: B1 VL
notes: GC1008 IgG4 variant
B6: S31P (antibody, V domains shown)
VH: B1 VH with F30S, S31P
VL: B1 VL
notes: GC1008 IgG4 variant
B7: S30M (antibody, V domains shown)
VH: B1 VH with F30M
VL: B1 VL
notes: GC1008 IgG4 variant
B8: S30N (antibody, V domains shown)
VH: B1 VH with F30N
VL: B1 VL
notes: GC1008 IgG4 variant
B9: S31T (antibody, V domains shown)
VH: B1 VH with F30S, S31T
VL: B1 VL
notes: GC1008 IgG4 variant
B10: V55G (antibody, V domains shown)
VH: B1 VH with F30S, V55G
VL: B1 VL
notes: GC1008 IgG4 variant
B11: S30Q (antibody, V domains shown)
VH: B1 VH with F30Q
VL: B1 VL
notes: GC1008 IgG4 variant
B12: Y27D (antibody, V domains shown)
VH: B1 VH with Y27D, F30S
VL: B1 VL
notes: GC1008 IgG4 variant
B13: S31L (antibody, V domains shown)
VH: B1 VH with F30S, S31L
VL: B1 VL
notes: GC1008 IgG4 variant
B14: S30T (antibody, V domains shown)
VH: B1 VH with F30T
VL: B1 VL
notes: GC1008 IgG4 variant
B15: S31K (antibody, V domains shown)
VH: B1 VH with F30S, S31K
VL: B1 VL
notes: GC1008 IgG4 variant
B16: S30P (antibody, V domains shown)
VH: B1 VH with F30P
VL: B1 VL
notes: GC1008 IgG4 variant
B17: S31G (antibody, V domains shown)
VH: B1 VH with F30S, S31G
VL: B1 VL
notes: GC1008 IgG4 variant
B18: S30L (antibody, V domains shown)
VH: B1 VH with F30L
VL: B1 VL
notes: GC1008 IgG4 variant
B19: S30Y (antibody, V domains shown)
VH: B1 VH with F30Y
VL: B1 VL
notes: GC1008 IgG4 variant
B20: S31V (antibody, V domains shown)
VH: B1 VH with F30S, S31V
VL: B1 VL
notes: GC1008 IgG4 variant
B21: S30I (antibody, V domains shown)
VH: B1 VH with F30I
VL: B1 VL
notes: GC1008 IgG4 variant
B22: S30R (antibody, V domains shown)
VH: B1 VH with F30R
VL: B1 VL
notes: GC1008 IgG4 variant
B23: S31Q (antibody, V domains shown)
VH: B1 VH with F30S, S31Q
VL: B1 VL
notes: GC1008 IgG4 variant
B24: S31H (antibody, V domains shown)
VH: B1 VH with F30S, S31H
VL: B1 VL
notes: GC1008 IgG4 variant
B25: Y27E (antibody, V domains shown)
VH: B1 VH with Y27E, F30S
VL: B1 VL
notes: GC1008 IgG4 variant
B26: S30G (antibody, V domains shown)
VH: B1 VH with F30G
VL: B1 VL
notes: GC1008 IgG4 variant
B27: S30V (antibody, V domains shown)
VH: B1 VH with F30V
VL: B1 VL
notes: GC1008 IgG4 variant

Legend:
Experiment in all cases: Biacore off-rate vs wt GC1008, 50 nM
[1] = molecular target: T1, human TGFβ3
How it was run: (§1)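 Surface plasmon resonance on a Biacore 3000 measured how fast purified antibody variants dissociated from TGFβ isoforms immobilized at about 100 RU. Variants carried single heavy- or light-chain substitutions and were produced by transient Expi293F transfection with Protein A cleanup. Samples at 50 nM were tested in duplicate, and each variant kd was divided by the wild-type control kd to give fold change.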

[2] = molecular target: T2, human TGFβ2
How it was run: as §1

[3] = molecular target: T3, human TGFβ1 (human, UniProt P01137 279-390)
T3 construct: also called TGFβ1 homodimer
T3 sequence (P01137 279-390 limits assumed): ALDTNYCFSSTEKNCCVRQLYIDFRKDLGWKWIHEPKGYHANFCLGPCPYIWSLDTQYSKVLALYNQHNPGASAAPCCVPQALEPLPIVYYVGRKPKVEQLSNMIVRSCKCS
How it was run: as §1

Binder | kd var/kd wt [1] | kd var/kd wt [2] | kd var/kd wt [3]
B1 | 0.7 | 0.9 | 1
B2 | 1.5 | 1.4 | 1.6
B3 | 1.5 | 1.2 | 1.4
B4 | 1.1 | 1.2 | 1.2
B5 | 1.4 | 1.4 | 1.7
B6 | 1.2 | 1.2 | 1.5
B7 | 1 | 0.9 | 0.7
B8 | 1.2 | 1.3 | 1.3
B9 | 1.5 | 1.2 | 1.6
B10 | 1.9 | 1.9 | 1.8
B11 | 1.1 | 1.2 | 1.2
B12 | 1.2 | 1.3 | 1.2
B13 | 1.5 | 1.2 | 2
B14 | 1.1 | 1.2 | 1.2
B15 | 1.4 | 1.2 | 1.8
B16 | 0.9 | 1 | 1.2
B17 | 1.1 | 1.2 | 1.1
B18 | 1 | 1 | 1
B19 | 0.8 | 0.9 | 1
B20 | 1.4 | 1 | 1.4
B21 | 1.1 | 1.1 | 1.4
B22 | 1.3 | 1.2 | 1.9
B23 | 1 | 1 | 1.5
B24 | 1.4 | 1.3 | 1.5
B25 | 1.1 | 1.4 | 1.2
B26 | 0.9 | 0.7 | 0.9
B27 | 1.1 | 1.2 | 1.1
